# In patent publication US20250215104A1 (WALDEN BIOSCIENCES, published 2025):
# Key:
# [1] = target: T1, human soluble urokinase plasminogen activator receptor (suPAR) (human, UniProt Q03405 23-303, limits assumed); assay: BLI (Octet) off-rate screen of scFv clones
# T1 construct: Column head says only 'human'; also called hsuPAR; human suPAR
# [2] = target: T2, cynomolgus soluble urokinase plasminogen activator receptor (suPAR) (cynomolgus, UniProt Q9GK78 23-303, limits assumed); assay: BLI (Octet) off-rate screen of scFv clones
# T2 construct: Column head says only 'cynomologus'; also called cynomolgus suPAR; cynomolgus uPAR
# T2 sequence (Q9GK78 23-303 limits assumed): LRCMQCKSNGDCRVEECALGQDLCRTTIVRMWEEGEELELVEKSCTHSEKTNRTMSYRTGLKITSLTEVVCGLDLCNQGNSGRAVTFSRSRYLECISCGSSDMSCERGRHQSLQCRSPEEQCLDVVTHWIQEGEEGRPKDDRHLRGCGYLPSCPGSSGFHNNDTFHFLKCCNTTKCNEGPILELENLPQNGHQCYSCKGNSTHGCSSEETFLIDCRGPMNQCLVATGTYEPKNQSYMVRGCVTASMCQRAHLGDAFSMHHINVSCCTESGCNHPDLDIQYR
# T1 sequence (Q03405 23-303 limits assumed): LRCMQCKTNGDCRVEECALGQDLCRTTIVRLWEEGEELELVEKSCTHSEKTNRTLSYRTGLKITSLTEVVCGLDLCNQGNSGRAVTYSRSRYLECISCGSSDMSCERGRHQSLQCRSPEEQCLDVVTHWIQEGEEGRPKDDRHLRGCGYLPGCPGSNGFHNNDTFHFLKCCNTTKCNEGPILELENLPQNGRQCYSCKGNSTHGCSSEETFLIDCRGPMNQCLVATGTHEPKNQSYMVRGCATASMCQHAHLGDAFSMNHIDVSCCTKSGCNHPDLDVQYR
Binder,koff [1],koff [2]
"suPAR_DB05_D01 (scFv, V domains shown, Screened as scFv) VH: QVQLVQSGAEVKKPGASVKVSCKASGHTSTNYYMHWVRQAPGQGLEWMGWIDHEGGNTSYDQKFQGRVTMTRDTSTSTVYMELSSLRSEDTAVYYCARGYDVDWFVYWGQGTLVTVSS VL: DIQMTQSPSSLSASVGDRVTITCSARSSVSYMYWYQQKPGKAPKLLIYRTSNLASGVPSRFSGSGSGTDFTLTISSLQPEDFATYYCQQYHSYPPTFGGGTKVEIK",0.00533 s⁻¹,0.000315 s⁻¹
"suPAR_DB05_D02 (scFv, V domains shown, Screened as scFv) VH: QVQLVQSGAEVKKPGASVKVSCKASGYTITGNYMHWVRQAPGQGLEWMGWIDHENGSTIYDQKFQGRVTMTRDTSTSTVYMELSSLRSEDTAVYYCARGYDVDWFVYWGQGTLVTVSS VL: DIQMTQSPSSLSASVGDRVTITCSARQSISYMYWYQQKPGKAPKLLIYRTSNLASGVPSRFSGSGSGTDFTLTISSLQPEDFATYYCQQYHSYPPTFGGGTKVEIK",0.00116 s⁻¹,0.000435 s⁻¹
"suPAR_DB05_D03 (scFv, V domains shown, Screened as scFv) VH: QVQLVQSGAEVKKPGASVKVSCKASGYTFGNYYMHWVRQAPGQGLEWMGWIDHENGNTIYAQKFQGRVTMTRDTSTSTVYMELSSLRSEDTAVYYCARGNDVDWFVYWGQGTLVTVSS VL: DIQMTQSPSSLSASVGDRVTITCSARSSVSYMYWYQQKPGKAPKLLIYRTSNLASGVPSRFSGSGSGTDFTLTISSLQPEDFATYYCQQYHSYPPTFGGGTKVEIK",0.00345 s⁻¹,0.00124 s⁻¹

# The remaining lines, values ahead:
koff [1],koff [2],Binder
0.006 s⁻¹,0.000851 s⁻¹,"suPAR_DB05_D10 (scFv, V domains shown, Screened as scFv) VH: QVQLVQSGAEVKKPGASVKVSCKASGYTFSNYYIHWVRQAPGQGLEWMGWIDHENGNTIYDQKFQGRVTMTRDTSTSTVYMELSSLRSEDTAVYYCARGTDVDWFVYWGQGTLVTVSS VL: DIQMTQSPSSLSASVGDRVTITCRARQSVSYMYWYQQKPGKAPKLLIYRTSNLASGVPSRFSGSGSGTDFTLTISSLQPEDFATYYCQQYHSYPPTFGGGTKVEIK"
0.00471 s⁻¹,7.69e-05 s⁻¹,"suPAR_DB05_D08 (scFv, V domains shown, Screened as scFv) VH: QVQLVQSGAEVKKPGASVKVSCKASGYTFTRYYMHWVRQAPGQGLEWVGWIDPHSGGTNYAQKFQGRVTMTRDTSTSTVYMELSSLRSEDTAVYYCARGYDIDWFVYWGQGTLVTVSS VL: DIQMTQSPSSLSASVGDRVTITCSARQSVSYMYWYQQKPGKAPKLLIYRTSNLASGVPSRFSGSGSGTDFTLTISSLQPEDFATYYCQQYHSYPPTFGGGTKVEIK"
0.00384 s⁻¹,0.000666 s⁻¹,"suPAR_DB05_D09 (scFv, V domains shown, Screened as scFv) VH: QVQLVQSGAEVKKPGASVKVSCKASGYTFTSYYMHWVRQAPGQGLEWMGWIDPENGNTIYAQKFQGRVTMTRDTSTSTVYMELSSLRSEDTAVYYCARGYDVDWFVYWGQGTLVTVSS VL: DIQMTQSPSSLSASVGDRVTITCSARSSVSYMYWYQQKPGKAPKLLIYRTSSLASGVPSRFSGSGSGTDFTLTISSLQPEDFATYYCQQYHSYPPTFGGGTKVEIK"
0.001 s⁻¹,0.000669 s⁻¹,"suPAR_DB05_D05 (scFv, V domains shown, Screened as scFv) VH: QVQLVQSGAEVKKPGASVKVSCKASGYTFTNYYMHWVRQAPGQGLEWMGWIDHSNGSTIYDQKFQGRVTMTRDTSTSTVYMELSSLRSEDTAVYYCARGYDVDWFVYWGQGTLVTVSS VL: DIQMTQSPSSLSASVGDRVTITCRARQSVSYMYWYQQKPGKAPKLLIYRTSNLASGVPSRFSGSGSGTDFTLTISSLQPEDFATYYCQQYHSYPPTFGGGTKVEIK"
0.00345 s⁻¹,0.000375 s⁻¹,"suPAR_DB05_D06 (scFv, V domains shown, Screened as scFv) VH: QVQLVQSGAEVKKPGASVKVSCKASGYTFSSYYMHWVRQAPGQGLEWMGWIDHENGNTIYDQKFQGRVTMTRDTSTSTVYMELSSLRSEDTAVYYCARGDDVDWFVYWGQGTLVTVSS VL: DIQMTQSPSSLSASVGDRVTITCSARSSVSYMYWYQQKPGKAPKLLIYRTSNLASGVPSRFSGSGSGTDFTLTISSLQPEDFATYYCQQYHSYPPTFGGGTKVEIK"
